Results from the supplement of paper PMC7877785.
± gives the uncertainty stated by the source.

Assay: self-splicing fitness, log relative to wild type (ln ratio); higher = more splicing; Tetrahymena group I intron in knt gene, E. coli kanamycin selection, DiMSum; sequences stand for … in CUCUCU…GGAGGGAAAAGUUAUCAGGCAUGCACCUGGUAGCUAGUCUUUAAACCAAUAGAUUGCAUCGGUUUAAAAGGCAAGACCGUCAAAUUGCGGGAAAGGGGUCAACAGCCGUUCAGUACCAAGUCUCAGGGGAAACUUUGAGAUGGCCUUGCAAAGGGUAUGGUAAUAAGCUGACGGACAUGGUCCUAACCACGCAGCCAAGUCCUAAGUCAACAGAUCUUCUGUUGAUAUGGAUGCAGUUCACAGACUAAAUGUCGGUCGGGGAAGAUGUAUUCUUCUCAUAAGAUAUAGUCGGACCUCUCCUUAAUGGGAGCUAGCGGAUGAAGUGAUGCAACACUGGAGCCGCUGGGAACUAAUUUGUAUGCGAAAGUAUAUUGAUUAGUUUUGGAGUACUCGUGGUCG
Method in brief: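 Fitness was computed with DiMSum as the error-weighted combination of replicate fold changes, kanamycin versus none, each normalised to wild type. The library randomised all eight intron nucleotides of the P1ex region, with the intron placed in the knt kanamycin-resistance gene on pET-22b(+) in E. coli BL21(DE3). Six replicate transformations were grown overnight at 37°C or 30°C on LB agar with or without 25 μg/mL kanamycin, plus 100 μg/mL carbenicillin, 50 μM IPTG and 0.2% rhamnose. Pooled colonies were amplicon-sequenced on an Illumina HiSeq 2500.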

| Sequence | self-splicing fitness (ln) (30 °C) | self-splicing fitness (ln) (37 °C) |
| --- | --- | --- |
| CCGUAGCAAUAUUACGCCAA | -3.21 ± 0.41 | -2.77 ± 0.4 |
| CCGUAGCAAUAUUACGCCAU | -3.26 ± 0.25 | -2.77 ± 0.36 |
| CCGUAGCAAUAUUACGCGAG | -3.82 ± 0.24 | -2.76 ± 0.32 |
| CCGUAGCAAUAUUACGCUAG | -3.02 ± 0.28 | -2.14 ± 0.25 |
| CCGUAGCAAUAUUACGCUUG | -1.48 ± 0.069 | -0.347 ± 0.075 |
| CCGUAGCAAUAUUACGGCCG | -1.05 ± 0.16 | -0.466 ± 0.18 |
| CCGUAGCAAUAUUACGGGGC | -2.28 ± 0.24 | -2.31 ± 0.34 |
| CCGUAGCAAUAUUACGGGUC | -2.96 ± 0.21 | -2.55 ± 0.2 |
| CCGUAGCAAUAUUACGGGUG | -3.59 ± 0.21 | -2.11 ± 0.16 |
| CCGUAGCAAUAUUACGGUGC | -2.96 ± 0.16 | -1.93 ± 0.16 |
| CCGUAGCAAUAUUACGUAAU | -4.17 ± 0.26 | -1.96 ± 0.26 |
| CCGUAGCAAUAUUACGUAUU | -4.16 ± 0.28 | -3.58 ± 0.39 |
| CCGUAGCAAUAUUACGUCAA | – | -1.2 ± 0.27 |
| CCGUAGCAAUAUUACGUCGC | -3.45 ± 0.41 | -1.77 ± 0.26 |
| CCGUAGCAAUAUUACGUGAA | -3.73 ± 0.18 | -2.34 ± 0.18 |
| CCGUAGCAAUAUUACGUGGG | -4.15 ± 0.2 | -3.05 ± 0.17 |
| CCUAAGCAAUAUUACGAAAU | -2.79 ± 0.18 | -2.77 ± 0.29 |
| CCUAAGCAAUAUUACGAACA | -3.01 ± 0.29 | -1.96 ± 0.32 |
| CCUAAGCAAUAUUACGAAGU | -2.62 ± 0.13 | -1.21 ± 0.13 |
| CCUAAGCAAUAUUACGACAC | -3.33 ± 0.44 | -2.03 ± 0.29 |
| CCUAAGCAAUAUUACGAGCG | -0.823 ± 0.097 | -0.11 ± 0.11 |
| CCUAAGCAAUAUUACGAUCC | -3.83 ± 0.29 | – |
| CCUAAGCAAUAUUACGCGUU | -3.27 ± 0.15 | -2.69 ± 0.16 |
| CCUAAGCAAUAUUACGCUAA | – | -2.31 ± 0.27 |
| CCUAAGCAAUAUUACGCUUC | -3.16 ± 0.28 | – |

| Sequence | self-splicing fitness (ln) (30 °C) | self-splicing fitness (ln) (37 °C) |
| --- | --- | --- |
| CCUAAGCAAUAUUACGGGAA | -3.52 ± 0.22 | -1.83 ± 0.2 |
| CCUAAGCAAUAUUACGGGAU | -4.35 ± 0.22 | -3.29 ± 0.21 |
| CCUAAGCAAUAUUACGGGCU | -3.03 ± 0.33 | -2.46 ± 0.33 |
| CCUAAGCAAUAUUACGGUCG | -0.889 ± 0.065 | -0.252 ± 0.086 |
| CCUAAGCAAUAUUACGGUGA | -3.89 ± 0.25 | -2.28 ± 0.16 |
| CCUAAGCAAUAUUACGGUUU | -4.49 ± 0.34 | -3.07 ± 0.34 |
| CCUAAGCAAUAUUACGUAUG | -1.82 ± 0.082 | -0.95 ± 0.087 |
| CCUAAGCAAUAUUACGUGGG | -3.51 ± 0.16 | -2.5 ± 0.15 |
| CCUAAGCAAUAUUACGUUAG | -1.95 ± 0.11 | -2.03 ± 0.11 |
| CCUCAGCAAUAUUACGAAAA | -2.77 ± 0.22 | -2.26 ± 0.33 |
| CCUCAGCAAUAUUACGAACU | -2.63 ± 0.37 | -1.64 ± 0.38 |
| CCUCAGCAAUAUUACGAAGG | -3.6 ± 0.34 | -1.84 ± 0.4 |
| CCUCAGCAAUAUUACGAAGU | -3.54 ± 0.17 | -1.88 ± 0.15 |
| CCUCAGCAAUAUUACGACGU | -3.17 ± 0.18 | -2.68 ± 0.24 |
| CCUCAGCAAUAUUACGACUC | -3.68 ± 0.43 | – |
| CCUCAGCAAUAUUACGAGGA | -2.54 ± 0.29 | -1.09 ± 0.14 |
| CCUCAGCAAUAUUACGAUCG | -0.809 ± 0.1 | -0.00907 ± 0.14 |
| CCUCAGCAAUAUUACGCAGA | -3.39 ± 0.34 | -2.27 ± 0.33 |
| CCUCAGCAAUAUUACGCCUA | -2.6 ± 0.21 | -1.6 ± 0.2 |
| CCUCAGCAAUAUUACGCGUU | -3.88 ± 0.23 | -2.96 ± 0.4 |
| CCUCAGCAAUAUUACGCUAC | -1.66 ± 0.33 | – |
| CCUCAGCAAUAUUACGCUCA | -2.6 ± 0.39 | -1.74 ± 0.22 |
| CCUCAGCAAUAUUACGGAUG | -0.811 ± 0.066 | -0.682 ± 0.087 |
| CCUCAGCAAUAUUACGGCCU | -4.16 ± 0.39 | -1.59 ± 0.29 |
| CCUCAGCAAUAUUACGGGAA | -2.4 ± 0.19 | -3.35 ± 0.3 |

| Sequence | self-splicing fitness (ln) (30 °C) | self-splicing fitness (ln) (37 °C) |
| --- | --- | --- |
| CCUCAGCAAUAUUACGGGUC | -2.5 ± 0.27 | -2.56 ± 0.36 |
| CCUCAGCAAUAUUACGGUCU | -3.73 ± 0.25 | -2.56 ± 0.27 |
| CCUCAGCAAUAUUACGUAAC | – | -2.13 ± 0.47 |
| CCUCAGCAAUAUUACGUCGU | -3.24 ± 0.15 | -2.82 ± 0.24 |
| CCUCAGCAAUAUUACGUCUC | -3.73 ± 0.24 | – |
| CCUCAGCAAUAUUACGUCUU | -3.91 ± 0.27 | -2.55 ± 0.26 |
| CCUCAGCAAUAUUACGUGCU | -3.84 ± 0.33 | -2.62 ± 0.39 |
| CCUCAGCAAUAUUACGUGGC | -3.94 ± 0.22 | -3.01 ± 0.24 |
| CCUGAGCAAUAUUACGACUU | -3.87 ± 0.27 | -2.46 ± 0.24 |
| CCUGAGCAAUAUUACGAUGA | -2.57 ± 0.2 | -1.44 ± 0.18 |
| CCUGAGCAAUAUUACGAUGG | -4.46 ± 0.21 | -2.58 ± 0.19 |
| CCUGAGCAAUAUUACGCCAU | -3.2 ± 0.4 | -2.13 ± 0.33 |
| CCUGAGCAAUAUUACGGCAA | -2.14 ± 0.22 | -2.42 ± 0.21 |
| CCUGAGCAAUAUUACGGCCA | -2.01 ± 0.34 | -2.05 ± 0.29 |
| CCUGAGCAAUAUUACGGGCA | -2.93 ± 0.19 | -1.83 ± 0.17 |
| CCUGAGCAAUAUUACGGGCG | -2.62 ± 0.23 | -2.1 ± 0.18 |
| CCUGAGCAAUAUUACGGGGA | -3.07 ± 0.15 | -3.37 ± 0.2 |
| CCUGAGCAAUAUUACGUAGC | -4.49 ± 0.27 | -1.77 ± 0.16 |
| CCUGAGCAAUAUUACGUCAA | -2.73 ± 0.22 | -2.36 ± 0.3 |
| CCUGAGCAAUAUUACGUCCA | -1.86 ± 0.28 | – |
| CCUGAGCAAUAUUACGUCGC | – | -2.54 ± 0.39 |
| CCUGAGCAAUAUUACGUCUU | – | -2.42 ± 0.23 |
| CCUGAGCAAUAUUACGUGAG | -3.61 ± 0.27 | -2.28 ± 0.24 |
| CCUGAGCAAUAUUACGUGUU | -4.7 ± 0.34 | -2.52 ± 0.17 |
| CCUUAGCAAUAUUACGAAAU | -3.26 ± 0.29 | -2.12 ± 0.31 |

| Sequence | self-splicing fitness (ln) (30 °C) | self-splicing fitness (ln) (37 °C) |
| --- | --- | --- |
| CCUUAGCAAUAUUACGAACA | – | -0.92 ± 0.29 |
| CCUUAGCAAUAUUACGAAUC | -2.65 ± 0.36 | -1.38 ± 0.34 |
| CCUUAGCAAUAUUACGACGG | -2.31 ± 0.17 | -2.95 ± 0.3 |
| CCUUAGCAAUAUUACGCAAA | – | -2.89 ± 0.34 |
| CCUUAGCAAUAUUACGCGUA | -3.27 ± 0.38 | -2.54 ± 0.36 |
| CCUUAGCAAUAUUACGCGUC | -4.42 ± 0.39 | -2.91 ± 0.31 |
| CCUUAGCAAUAUUACGCUCG | – | -1.73 ± 0.27 |
| CCUUAGCAAUAUUACGGAAU | -3.53 ± 0.2 | -3.15 ± 0.3 |
| CCUUAGCAAUAUUACGGACA | -2.53 ± 0.32 | – |
| CCUUAGCAAUAUUACGGUAU | -3.64 ± 0.33 | -2.67 ± 0.36 |
| CCUUAGCAAUAUUACGGUCA | – | -3.63 ± 0.37 |
| CCUUAGCAAUAUUACGGUCC | -3.5 ± 0.46 | -3.04 ± 0.35 |
| CCUUAGCAAUAUUACGUAUG | -2.98 ± 0.19 | -0.234 ± 0.12 |
| CCUUAGCAAUAUUACGUCCU | -2.36 ± 0.17 | -2.65 ± 0.38 |
| CCUUAGCAAUAUUACGUGUA | -4.28 ± 0.43 | -1.47 ± 0.15 |
| CCUUAGCAAUAUUACGUGUU | -4.69 ± 0.32 | -3.25 ± 0.21 |
| CCUUAGCAAUAUUACGUUGG | -3.71 ± 0.21 | -3.32 ± 0.26 |
| CGAAAGCAAUAUUACGAAGG | -1.05 ± 0.11 | -1.03 ± 0.16 |
| CGAAAGCAAUAUUACGACAA | -1.13 ± 0.25 | -1.63 ± 0.18 |
| CGAAAGCAAUAUUACGACAC | -2.69 ± 0.18 | -1.56 ± 0.26 |
| CGAAAGCAAUAUUACGAGAC | – | -2.62 ± 0.24 |
| CGAAAGCAAUAUUACGAGGG | -3.66 ± 0.14 | -2.17 ± 0.13 |
| CGAAAGCAAUAUUACGAUAG | -0.598 ± 0.074 | 0.569 ± 0.1 |
| CGAAAGCAAUAUUACGAUCC | -1.03 ± 0.16 | -0.798 ± 0.17 |
| CGAAAGCAAUAUUACGAUGA | -0.9 ± 0.08 | -0.508 ± 0.088 |
